Results on seven sequences are retold here after the supplement of paper PMC5998384.

For data set [1], the system named is HeLa Kyoto. The data set is described as follows: thermal stability score vs G1/S (z-score of summed log2 fold changes over temperatures); higher = more thermally stable than in G1/S.
Data set [2] concerns HeLa Kyoto. The data set is described as follows: solubility change mitosis vs G1/S (difference of NP-40 vs SDS log2 ratios) (log2 ratio difference); higher = more soluble in mitosis.
The subject of data set [3] is HeLa Kyoto. In words: solubility in G1/S (NP-40 vs SDS abundance) (log2 ratio); higher = more soluble. To be noted: cell cycle stage: G1/S.
Data set [4] deals with HeLa Kyoto. The data set is described as follows: melting temperature (median over replicates), in situ; higher = more thermally stable.
The mark [5] stands for this setting: cell cycle stage: early G1 (4.5 h after nocodazole release).
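For melting temperature (median over replicates), in situ in this document: HeLa Kyoto cells synchronized by double thymidine or nocodazole block, proteins quantified by TMT10plex mass spectrometry, three independent biological replicates.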
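For solubility change mitosis vs G1/S (difference of NP-40 vs SDS log2 ratios) in this document: synchronized HeLa Kyoto cells (double thymidine block for G1/S, nocodazole release for mitosis), protein amounts in NP-40 versus SDS lysates quantified by mass spectrometry, three biological replicates.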
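For solubility in G1/S (NP-40 vs SDS abundance) in this document: HeLa Kyoto cells arrested at G1/S by double thymidine block, proteins quantified by TMT10plex mass spectrometry in mild NP-40 versus SDS extracts, three biological replicates.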
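For thermal stability score vs G1/S (z-score of summed log2 fold changes over temperatures) in this document: synchronized HeLa Kyoto cells, proteins quantified by TMT10plex mass spectrometry, three biological replicates, mitosis taken 0.5 h after nocodazole release, G1/S directly after double thymidine block.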

Take “MTTQQIDLQGPGPWGFRLVGGKDFEQPLAISRVTPGSKAALANLCIGDVITAIDGENTSNMTHLEAQNRIKGCTDNLTLTVARSEHKVWSPLVTEEGKRHPYKMNLASEPQEVLHIGSAHNRSAMPFTASPASSTTARVITNQYNNPAGLYSSENISNFNNALESKTAASGVEANSRPLDHAQPPSSLVIDKESEVYKMLQEKQELNEPPKQSTSFLVLQEILESEEKGDPNKPSGFRSVKAPVTKVAASIGNAQKLPMCDKCGTGIVGVFVKLRDRHRHPECYVCTDCGTNLKQKGHFFVEDQIYCEKHARERVTPPEGYEVVTVFPK [PDLIM1]”: the thermal stability score was -1.51 with HeLa Kyoto [1] (setting [5]) and -0.369 in the data set with HeLa Kyoto [1] (cell cycle stage: mitosis). Moreover, the “solubility change mitosis (log2)” value in the data set with HeLa Kyoto [2] is 0.147. For the same sequence, the “solubility in G1/S (log2)” value in the data set on HeLa Kyoto [3] was determined as 0.455. The melting temperature came out at 55.6 °C with HeLa Kyoto [4] (cell cycle stage: G1/S) and 56 °C with HeLa Kyoto [4] (cell cycle stage: mitosis).

Turning to “MTVFFKTLRNHWKKTTAGLCLLTWGGHWLYGKHCDNLLRRAACQEAQVFGNQLIPPNAQVKKATVFLNPAACKGKARTLFEKNAAPILHLSGMDVTIVKTDYEGQAKKLLELMENTDVIIVAGGDGTLQEVVTGVLRRTDEATFSKIPIGFIPLGETSSLSHTLFAESGNKVQHITDATLAIVKGETVPLDVLQIKGEKEQPVFAMTGLRWGSFRDAGVKVSKYWYLGPLKIKAAHFFSTLKEWPQTHQASISYTGPTERPPNEPEETPVQRPSLYRRILRRLASYWAQPQDALSQEVSPEVWKDVQLSTIELSITTRNNQLDPTSKEDFLNICIEPDTISKGDFITIGSRKVRNPKLHVEGTECLQASQCTLLIPEGAGGSFSIDSEEYEAMPVEVKLLPRKLQFFCDPRKREQMLTSPTQ [AGK]”, the values for the thermal stability score in the data set on HeLa Kyoto [1] (setting [5]) and with HeLa Kyoto [1] (cell cycle stage: mitosis) were -0.493 and -1.02, respectively. In addition, the “solubility change mitosis (log2)” value in the data set on HeLa Kyoto [2] is -0.034. In the data set with HeLa Kyoto [3], the “solubility in G1/S (log2)” value is 0.0337. Also, the melting temperature in the data set with HeLa Kyoto [4] (cell cycle stage: G1/S) and in the data set with HeLa Kyoto [4] (cell cycle stage: mitosis) was 53.6 °C each time.

“MVAPGLVLGLVLPLILWADRSAGIGFRFASYINNDMVLQKEPAGAVIWGFGTPGATVTVTLRQGQETIMKKVTSVKAHSDTWMVVLDPMKPGGPFEVMAQQTLEKINFTLRVHDVLFGDVWLCSGQSNMQMTVLQIFNATRELSNTAAYQSVRILSVSPIQAEQELEDLVAVDLQWSKPTSENLGHGYFKYMSAVCWLFGRHLYDTLQYPIGLIASSWGGTPIEAWSSGRSLKACGVPKQGSIPYDSVTGPSKHSVLWNAMIHPLCNMTLKGVVWYQGESNINYNTDLYNCTFPALIEDWRETFHRGSQGQTERFFPFGLVQLSSDLSKKSSDDGFPQIRWHQTADFGYVPNPKMPNTFMAVAMDLCDRDSPFGSIHPRDKQTVAYRLHLGARALAYGEKNLTFEGPLPEKIELLAHKGLLNLTYYQQIQVQKKDNKIFEISCCSDHRCKWLPASMNTVSTQSLTLAIDSCHGTVVALRYAWTTWPCEYKQCPLYHPSSALPAPPFIAFITDQGPGHQSNVAK [SIAE]”: the thermal stability score with HeLa Kyoto [1] (setting [5]) was 1.01; in the data set with HeLa Kyoto [1] (cell cycle stage: mitosis), -0.521. Moreover, in the data set on HeLa Kyoto [2], the “solubility change mitosis (log2)” value is -0.103. In addition, in the data set with HeLa Kyoto [3], the “solubility in G1/S (log2)” value was 0.569. In addition, the melting temperature in the data set on HeLa Kyoto [4] (cell cycle stage: G1/S) turned out to be 58 °C; with HeLa Kyoto [4] (cell cycle stage: mitosis) it was 57.9 °C.

For “MVDYSVWDHIEVSDDEDETHPNIDTASLFRWRHQARVERMEQFQKEKEELDRGCRECKRKVAECQRKLKELEVAEGGKAELERLQAEAQQLRKEERSWEQKLEEMRKKEKSMPWNVDTLSKDGFSKSMVNTKPEKTEEDSEEVREQKHKTFVEKYEKQIKHFGMLRRWDDSQKYLSDNVHLVCEETANYLVIWCIDLEVEEKCALMEQVAHQTIVMQFILELAKSLKVDPRACFRQFFTKIKTADRQYMEGFNDELEAFKERVRGRAKLRIEKAMKEYEEEERKKRLGPGGLDPVEVYESLPEELQKCFDVKDVQMLQDAISKMDPTDAKYHMQRCIDSGLWVPNSKASEAKEGEEAGPGDPLLEAVPKTGDEKDVSV [CDC37]”, the results for the thermal stability score with HeLa Kyoto [1] (setting [5]) and in the data set on HeLa Kyoto [1] (cell cycle stage: mitosis) were 0.438 and -0.732, respectively. In the data set on HeLa Kyoto [2], the “solubility change mitosis (log2)” value came to 0.0658. The “solubility in G1/S (log2)” value in the data set with HeLa Kyoto [3] worked out at 0.24. Further, the melting temperature came out at 52.1 °C in the data set with HeLa Kyoto [4] (cell cycle stage: G1/S) and 52.6 °C in the data set on HeLa Kyoto [4] (cell cycle stage: mitosis).

Regarding “MVEADRPGKLFIGGLNTETNEKALEAVFGKYGRIVEVLLMKDRETNKSRGFAFVTFESPADAKDAARDMNGKSLDGKAIKVEQATKPSFESGRRGPPPPPRSRGPPRGLRGGRGGSGGTRGPPSRGGHMDDGGYSMNFNMSSSRGPLPVKRGPPPRSGGPPPKRSAPSGPVRSSSGMGGRAPVSRGRDSYGGPPRREPLPSRRDVYLSPRDDGYSTKDSYSSRDYPSSRDTRDYAPPPRDYTYRDYGHSSSRDDYPSRGYSDRDGYGRDRDYSDHPSGGSYRDSYESYGNSRSAPPTRGPPPSYGGSSRYDDYSSSRDGYGGSRDSYSSSRSDLYSSGRDRVGRQERGLPPSMERGYPPPRDSYSSSSRGAPRGGGRGGSRSDRGGGRSRY [RBMX]”, the thermal stability score in the data set on HeLa Kyoto [1] (setting [5]) is -0.25; with HeLa Kyoto [1] (cell cycle stage: mitosis) it was 7.17. Besides, in the data set on HeLa Kyoto [2], the “solubility change mitosis (log2)” value turned out to be 0.777. For the same sequence, in the data set on HeLa Kyoto [3], the “solubility in G1/S (log2)” value was -0.567. For the same sequence, the melting temperature with HeLa Kyoto [4] (cell cycle stage: G1/S) is 47.5 °C; with HeLa Kyoto [4] (cell cycle stage: mitosis), 50.5 °C.

Consider “MVELMFPLLLLLLPFLLYMAAPQIRKMLSSGVCTSTVQLPGKVVVVTGANTGIGKETAKELAQRGARVYLACRDVEKGELVAKEIQTTTGNQQVLVRKLDLSDTKSIRAFAKGFLAEEKHLHVLINNAGVMMCPYSKTADGFEMHIGVNHLGHFLLTHLLLEKLKESAPSRIVNVSSLAHHLGRIHFHNLQGEKFYNAGLAYCHSKLANILFTQELARRLKGSGVTTYSVHPGTVQSELVRHSSFMRWMWWLFSFFIKTPQQGAQTSLHCALTEGLEILSGNHFSDCHVAWVSAQARNETIARRLWDVSCDLLGLPID [RDH11]”, for which the thermal stability score is -0.184 with HeLa Kyoto [1] (setting [5]) and 0.26 with HeLa Kyoto [1] (cell cycle stage: mitosis). The “solubility change mitosis (log2)” value in the data set with HeLa Kyoto [2] was -0.137. Moreover, in the data set with HeLa Kyoto [3], the “solubility in G1/S (log2)” value is -0.0695. In addition, the figures for the melting temperature in the data set on HeLa Kyoto [4] (cell cycle stage: G1/S) and in the data set on HeLa Kyoto [4] (cell cycle stage: mitosis) were 49.5 °C and 50.2 °C, respectively.

In the case of “MVFLPLKWSLATMSFLLSSLLALLTVSTPSWCQSTEASPKRSDGTPFPWNKIRLPEYVIPVHYDLLIHANLTTLTFWGTTKVEITASQPTSTIILHSHHLQISRATLRKGAGERLSEEPLQVLEHPRQEQIALLAPEPLLVGLPYTVVIHYAGNLSETFHGFYKSTYRTKEGELRILASTQFEPTAARMAFPCFDEPAFKASFSIKIRREPRHLAISNMPLVKSVTVAEGLIEDHFDVTVKMSTYLVAFIISDFESVSKITKSGVKVSVYAVPDKINQADYALDAAVTLLEFYEDYFSIPYPLPKQDLAAIPDFQSGAMENWGLTTYRESALLFDAEKSSASSKLGITMTVAHELAHQWFGNLVTMEWWNDLWLNEGFAKFMEFVSVSVTHPELKVGDYFFGKCFDAMEVDALNSSHPVSTPVENPAQIREMFDDVSYDKGACILNMLREYLSADAFKSGIVQYLQKHSYKNTKNEDLWDSMASICPTDGVKGMDGFCSRSQHSSSSSHWHQEGVDVKTMMNTWTLQKGFPLITITVRGRNVHMKQEHYMKGSDGAPDTGYLWHVPLTFITSKSDMVHRFLLKTKTDVLILPEEVEWIKFNVGMNGYYIVHYEDDGWDSLTGLLKGTHTAVSSNDRASLINNAFQLVSIGKLSIEKALDLSLYLKHETEIMPVFQGLNELIPMYKLMEKRDMNEVETQFKAFLIRLLRDLIDKQTWTDEGSVSERMLRSQLLLLACVHNYQPCVQRAEGYFRKWKESNGNLSLPVDVTLAVFAVGAQSTEGWDFLYSKYQFSLSSTEKSQIEFALCRTQNKEKLQWLLDESFKGDKIKTQEFPQILTLIGRNPVGYPLAWQFLRKNWNKLVQKFELGSSSIAHMVMGTTNQFSTRTRLEEVKGFFSSLKENGSQLRCVQQTIETIEENIGWMDKNFDKIRVWLQSEKLERM [ERAP1]”, the thermal stability score in the data set with HeLa Kyoto [1] (setting [5]) stood at 3.59; in the data set on HeLa Kyoto [1] (cell cycle stage: mitosis) it was 5.54. Moreover, the “solubility change mitosis (log2)” value in the data set on HeLa Kyoto [2] was -0.172. In addition, the “solubility in G1/S (log2)” value in the data set on HeLa Kyoto [3] came to 0.0916. Besides, the results for the melting temperature with HeLa Kyoto [4] (cell cycle stage: G1/S) and in the data set on HeLa Kyoto [4] (cell cycle stage: mitosis) were 53.9 °C and 54.4 °C, respectively.
